This passage reports protein production results from a protein production outcome set (Wang et al. 2014).

The series can be described thus: label from the status in PepcDB records.
For the sequence “SESQDIKALQKELEQFAKLLKQKRITLGYTQADVGLTLGVLFGKVFSQTTICRFEALQLSFKNMCKLRPLLQKWVEEADNNENLQEICKAETLVQARKRKRTSIENRVRGNLENLFLQCPKPTLQQISHIAQQLGLEKDVVRVWFCNRRQKGKRSSSDYAQ”, the protein production entry is on record as “not failed”.

For the sequence “MDDSAGHSGEDNALMEKHFMAAVVVTFQSGSTIDVCLARLRAAKDVAEICVVDNGSHDETLNIVQCHALADPRVRFVANLDNPGFAAACNQGAADVSAPWLVFVNPDLMVEPEILAQLRAYAEVYVPALLGVEQVDEHGYPDPAVRRRDPDFAAMLRNPRRGTQLAIPADPTQSLQLVPALSGALMLMSRLLFERLGGWDVGYRLHAEDLDLCRRARQVGATVAVVNTLQVVHLRGVSSRSRPFFVEWHKHCGLWRYFCKFEAPQRGLPVRLGVWLAIWSHAFFQCLGVWLRRR”, the protein production entry is reported as “failed”.

“MSETLAVVRASRPNFLLLAPLCAGLGLAVAWQQGQAPELLHTFLVFLGAVLAHAAVNLLNEYDDFRSGLDMITERTPFSGGSGALPEVPTAARRVLWAGLGTLAVVVTIGLYFLWLRGLPLLVLGAAGVVLVLTYTRWITRSPLLCLLAPGMGFGPIMVLGTVIALGASIDTSALLASLVALLMVSELLLINQIPDAEADRAIGRRHLVITLGPEKAAHLVAGLLLASYGVIVAGMVSGYLAMTSLIALAPLPAAVWISLRLPRVLAMPDQLNRVLGANVAVLLSTLALLVTGLSL”: the protein production result is on record as “failed”.

As to “MTSAAQLTALLHLASPALPVGAFSYSQGLEAAVEARHVHDEASAARWIAEGLAVLAACEAPLWLLQYADWQAGRLDAVAERDGWFLATRETRELRLETAQMGWSLARLIAQMGWGAPAMRDALAARAAITFPTAFAAAAVALGIEARDGLTAYSFAWVENQVAAAVKAIPLGQAAGQRILFGLHAAVGQAAEDAARRAACHPPELSTFSPGLGVLSARHETQYSRLFRSLEHHHHHH”, the protein production result was “failed”.

On to “MTARELLKIVVVGHVDHGKSTIIGRLLYDTKSVPEAAIERVKRISKEKGRPFEYAYLLDALEEEQKQGITIDTTQIKFSTPKRDYLIIDAPGHKEFLKNMVSGAANAEAALLVIDAAEGVQEQSKRHAYILSLLGIQKVYVIVNKMDMIEFSEKKFKEIKYEISTFLSKLNVYPQKYIPVSGFLGENIARKSDKMPWYKGETLLQALDLFEKDKELEDRPLRFPIQDVYKFDHRRVIAGRLESGRLKVGDEIKILPEGKVSKVKSIEFWPENNKKDEVVAGMSIGITIEDEFFNKRGEVIVHKNDNTLYVSDTFRANLFWLGKRNLVKNKTYKLKLVTQETECEIVSIDKVIDATTLETVENALEVRTNDVAEVTIKTREKICFDEFKVNPTTGRFVLVDEYDVSGGGIISGLANLKEEATKFVKDDKEMIVHCFDEYYYSLSEGLIRKHSKYKRTFKVGDAVPIEGETYSYPESFDVIDINGKLVAKVRKGQLSDLVDIDQYIYSELPIITADGFYLKVNSIDEFKDFKNELVQLQKNDNFHLAMFANKWYDISANRSFKFTV”, for which the protein production entry is listed as “failed”.

Regarding “MKLDWNGIDTVLLDMDGTLLDRHFDDHFWLEHVPKRYAAQNGIPLDEAKKLLYALFRSQERTLNWTDLDYWSERLGLDIPVLKQEIDHLIAVHPGVVEFLVFLRRHGKQAWLVTNAHGKTLSLKMRKTRLGPYFTGIISAHDLGLPKEDVRFWEKLQERVPYEPSRTLLGEDSETNLGTAEEYGIAHLIYVSRYSSTVTPTASDRYASIHYFTQLIPAAHTDET”, the protein production result was “failed”.

For the sequence “MSIREVIMDYLENSSKKALSVEELSVALHMNKAKDYKVFVKTLASLEAEHLLNFTAKGKVELAEKEEAKVVISGIFRANAAGFGFVSIDAEEPDVFVARGQTAFALDGDEVFIEIDKNANALKGTSAEGHVVEIIRHDVHQVVGTFVALNDDEKEQTGLIGFVKSRNKKIPYRVYLENEGLIPENKAIVRVEITHYPDKEFPQTMQGLVTEIIGQADDQGIDVLEVLASMDIVSEFPKEVLDQAEAVPEEVPENEIVGRVDYRNEITFTIDGADAKDLDDAVHAKRLENGNYELGVHIADVSHYVTENSPLDKEAYERGTSVYVTDRVVPMLPERLSNGICSLNPRINRLTQSCVMEISPEGRVINYQISQSIIKTTERMTYDAVNQMIAGDEAALENYAKIADSVKIMVELHHILEAMRKRRGAIDFDTVEAKIIVNEKGLPIEIRKRTRGIAERMIESFMLEANETVATHFEAHGLPFIYRIHEQPKADRLQRFIDFAATFGMQIEGTSNGIDQKVLQAFMKKIKGQPGEMVLSTMLLRSMQQARYSENNEGHFGLAAENYTHFTSPIRRYPDLLVHRLIREIGEGKTPANILQKWEDKIPEIAEHSSHRERRAVDAEREVEKMKKAEFMEEHVGEEYEGIIASVTRFGMFIELENTIEGLVHISTLKGDYFNYQERMLALIGERSGLTFKIGQPIKIKVVKADRMTGEIDFEYLPSELDLIDKAAKAKKKPDHKGRKKSNQSLKVKSVAPKSTDKSANKSKNGRRADEKFEFDKKKKKSAKKPFYSKAAKGKFTDKKDNGKKFTDGRKKPHKRG”, the protein production result is listed as “failed”.

Regarding “MSLDKAIKEVRGNGKLKVAVFSDPDCPFCKRLEHEFEKMTDVTVYSFMMPIAGLHPDAARKAQILWCQPDRAKAWTDWMRKGKFPVGGSICDNPVAETTSLGEQFGFNGTPTLVFPNGRTQSGYSPMPQLEEIIRKNQQEGHHHHHH”, the protein production entry was “not failed”.

As for “MLMLEREKLARLIKKRSLKVADEPVFKLSSGKLSRYYVDLKQITFDPEGDYLIGKAMYELVKEFNPDACGGLTLGADPIAYAIAFVSLMDSNPIKPFVVRKEPKGHGMKRQIEGLLNPGERVAVLEDVVTTGSSALKAVKACREYGLEVIGVFAVVDREEGGRENIEKEGIPLYSLFKLSELL”, the protein production entry is “not failed”.

On to “MFLSVVTVAFRNYEGVVKTWRSLRNLARDPGLSFEWIVVDGGSEDGTREFLQKRHGEFNLRFISEKDRGIYDAMNKGIALAQGRYTLFLNSGDAFHDDAALFVRQLARQKGEAMYIGDALLDFGGGHKIRRKAKPGYYIYHSLPASHQAIFFPTAALKKYPYDLQYHVSSDYALAARLYKAGYPFRRINGLVSEFSMGGVSTSNNLELCQDAKNVQRKILRVPGFWAQLSYLLRLKTTGKTKARYNKVLEHHHHHH”, for which the protein production result is listed as “failed”.

As to “MQIFETILIFLALVILSSFLHTFLPKIPLAFIQIILGMLLYVTPIPVQFNFDSELFMVALIAPLLFVEGVKVSRVHLRRYIKPVLMMALGLVVTTVIVVGLFVHWIWPELPMAAAFALAAILCPTDAVAVQAITNGKVLPKGSMTILEGESLLNDAAGIISFKIAVAALITGGFSMVNAVEQFLISSIGGFIVGLLIGVALVRFRVTLSRRGIENINMFTFIQLVTPFITYIVAEMFHASGIIAAVVAGLVHGFERDRIAQARTRLQMSYNHTWNILGYALNGFVFSILGFLIPEVVGRIIENEPHNLIFLITVTCLIALAIYLFRFLWVFVLYPYFYLPVSPFQKMISHNEDDQKTAETPPKRGMYAFIMTLCGVHGTISLAIALTLPYMLADHHSFIFRDDLLFIASGMVIISLIVAQMILPVVTPNAKKPKIVGMNFKQARVYILEKVIDSLNQQSSVTSSFQYGNVIKDYHDKLAFLRTVENEDENTKELQRLQKLAFDVENQTLNGLVENGDITTNVLDNYMRYTERTQVYKQASLLQRIKVEVRAMILKRRIRTKVKTNAASPLSVVDNLREISNIMRTVHYRVVSRLGKETTENNKLEVGMICDSYLIRIDNLTPSNFFNPKNENSITKIKLSALKEQRRILNQLVEDEEVSEVTALKIREAINYDEMIIVDSSTD”, the protein production entry was “failed”.

On to “MRSRGEPLPAGGRMKTLAFVALALAGISWGLGFPTGKLILRETDAAHMVLLRFLVAAVAAAPFALRRPEVRALFRSPIVLLAGALYGVAFLVQFEGLAHVSVTVAALLVGAMPALIAVSARVLGEKVSRLSWAGVAAATLGAALIAGKPDGASSPLGVALSIAALFLFLTWLLVLRRAPPAPNPMAIPAVSIIVAALVVLPIALIMHGPPKLALSAPAWTAIVAQGVLATLLATAAWQYGAAQVGAASAGVFINIEPLMGAACGVLLFGDHLTAALFAGGLLIIGGSFAVVMGERQAKPGEIQATVAPTP”, for which the protein production result is recorded as “failed”.

“MTSDIKAILEQVVISPDVPIAEAIAQLDRAGTGSLVVCSADKKLYGLLTDGDVRRALLKAVDMGAPCGDIANRKPVITFVPLLPIEALRLMNHHDINHLPVLDAEGRVVDFLLRRDLVAEDELAARARRRLDSVVIPCSASIAEAIAQLDRAGTGALVLCSEGDRLHGLLTDGDIRRAVLRGISLDAPCQDVASRRPVTVEPSFSAAQALHLMNQHDINHLPVVDDTGRVVDFLLRRDLIADDQLNLSAVVMAGGYGKRLLPLTEQVPKPMLPVGDRPLLERTIDQLRRSGIREVNLTTHYLPDSIVEHFGDGDSFGVKLNYLKEDHPLGTAGGLKLMKKASDPFLVMNGDILTGVPFQEMFAYHRKNGAEITVGVRKYEVQVPFGVVECDDVRITGLKEKPSLTFFINAGIYLLEPSVCDLIPEGERFDMTDLIQKLLDEGRSVVSFPIMEYWLDVGRHEDYQKAQEDVRSGKIQLEHHHHHH”: the protein production result was “failed”.

Regarding “MEEASEGGGNDRVRNLQSEVEGVKNIMTQNVERILARGENLEHLRNKTEDLEATSEHFKTTSQKVARKFWWKNVKMIVLICVIVFIIILFIVLFATGAFS”, the protein production entry is “failed”.

On to “MNEIYDREQMIKLLDLAKNTEMELPINLAIGLGLRISEVLGLTWDNIDFEENTITVNKITSRINGSVILKEPKTESSVRKISSPKELMSLLKEYKIKQNKNLLKSSIRNNNNLLFFNKKCEPIAEDVMSKKFKRFLEKNELPHIRFHDLRHSHVTLLINSKVPIKVISERVGHSNISTTLSVYSHVLKEMDKEASDKISESLFNANLEHHHHHH”, for which the protein production entry is “not failed”.

On to “EADYKQATALELATLVREKKVTSEELVKIALAITKRENPTLNAVITLREEAALTEAKALQDTGQPFLGVPLLLKGLGQSLKGESNTNGFGFLQDQVAGGTSTFVKALQNAGFIIIGQTNYPELGWKNISDSKLYGVSVNPWNPNHYSGGSSGGAGASVAAAFVPIASGSDAGGSIRIPASWTGTVGLKPSRGVIIGNSNSAKGQTVHFGLSRTVADTNALFETLLTKKDLPAGHLSQAQPIAYTTESPAGTPISAEAKEAVAEAVAFLKDQGYTLVEVKHPVDGERLMKNYYTVAAGSAGIADFMARQKLKRPLERNDVELLTWALFQTGKNITSEETTAAWTDIALQAQAMDEFYQQYPILLTPTTAATAPSIDNPLLKPEHAAQMEKIDQLSPAEQKQLIYDQWLTAFTYTPFTQQANLFGHPALSVPTYVSKEGLPLGIQFNSALNEDRTLLQLGALFENNHK”, for which the protein production result was “failed”.

Take “SGGRRSSWIKNWTLWKHFKDYFPIHLIKTQDLDPSHNYIFGFHPHGIMAVGAFGNFSVNYSDFKDLFPGFTSYLHVLPLWFWCPVFREYVMSVGLVSVSKKSVSYMVSKEGGGNISVIVLGGAKESLDAHPGKFTLFIRQRKGFVKIALTHGASLVPVVSFGENELFKQTDNPEGSWIRTVQNKLQKIMGFALPLFHARGVFQYNFGLMTYRKAIHTVVGRPIPVRQTLNPTQEQIEELHQTYMEELRKLFEEHKGKYGIPEHETLVLK”: the protein production result is “not failed”.

As to “MSEINYSTVQYYLVLILIFIYLSLFVLEKKWPLRKATRPLLPRLAINFTFTLLVYVIASLFISPLAKATVLFTFSHDFGLLSMLPFNQWVVFILGFLLMDLSFYYWHALNHKLPLLWRFHVVHHADPDLDVSTAMRFHCVEIMYSSLFRLVQLGLIGVSPLLFFCYEFFFQAHTFFQHSNIKLPFRFERLINKIIVTPRMHGIHHSNYLNETNSNYGVVFSFWDRLHQTIKLDIPQQAIIIGVPGYSKPSDNSLIRLLLMPIKAQRHYWQIKKDFHFSRKSKTSDKKVRTLCE”, the protein production entry was “failed”.

As for “MDPDNRVRQRAVKTLGKRGNPDVLEDLMEALKDSRQPVQEAASEALRKIIAASDSVPVLVKALDATDRNVRKAAIEALWKAGTPEAIPPLLRELDDADWYLRSRAADALADIASPEAALGLIKVMDIHDSPVKKIIVNALGKIGTVEAVEGLVKALEDLEHHHHHH”, the protein production result is recorded as “not failed”.
